Measurements as given in PMC7865074, “Role of PDZ-binding motif from West Nile virus NS5 protein on viral replication” (Scientific Reports, 2021).
Ends that are not written are not given here.

T1: biotinylated WNV NS5 PBM peptide (West Nile virus, also: biotinyl group, end not given here)
T1 construct: bait of the holdup assay; also called 13-mer peptide; source: synthetic peptide (solid phase, Fmoc; Proteogenix)
T1 peptide: RYEDTTLVEDTVL

B1: FERM and PDZ domain-containing protein 4, PDZ domain (holdup construct) (domain or fragment, human, UniProt Q14CM0 78-155, looked up)
chain: KVEMRRDPVLGFGFVAGSEKPVVVRSVTPGGPSEGKLIPGDQIVMINDEPVSAAPRERVIDLVRSCKESILLTVIQPY
notes: also called FRMPD4; source: E. coli, PDZome V.2 library, high-throughput expression
B2: PDZ and LIM domain protein 1, PDZ domain (holdup construct) (domain or fragment, human, UniProt O00151 3-85, looked up)
chain: TQQIDLQGPGPWGFRLVGGKDFEQPLAISRVTPGSKAALANLCIGDVITAIDGENTSNMTHLEAQNRIKGCTDNLTLTVARSE
notes: also called PDLIM1; source: E. coli, PDZome V.2 library, high-throughput expression
B3: Beta-1-syntrophin, PDZ domain (holdup construct) (domain or fragment, human, UniProt Q13884 112-195, looked up)
chain: GVKVLKQELGGLGISIKGGKENKMPILISKIFKGLAADQTQALYVGDAILSVNGADLRDATHDEAVQALKRAGKEVLLEVKYMR
notes: also called SNTB1; source: E. coli, PDZome V.2 library, high-throughput expression
B4: SH3 and multiple ankyrin repeat domains protein 2, PDZ domain (holdup construct) (domain or fragment, human, UniProt Q9UPX8 626-720, looked up)
chain: TVVLQKKDNEGFGFVLRGAKADTPIEEFTPTPAFPALQYLESVDEGGVAWQAGLRTGDFLIEVNNENVVKVGHRQVVNMIRQGGNHLVLKVVTVT
notes: also called SHANK2; source: E. coli, PDZome V.2 library, high-throughput expression
B5: Na(+)/H(+) exchange regulatory cofactor NHE-RF1, PDZ domain 1 (holdup construct) (domain or fragment, human, UniProt O14745 14-94, looked up)
chain: LCCLEKGPNGYGFHLHGEKGKLGQYIRLVEPGSPAEKAGLLAGDRLVEVNGENVEKETHQQVVSRIRAALNAVRLLVVDPE
notes: source: E. coli, PDZome V.2 library, high-throughput expression
B6: Disks large homolog 4, PDZ domain 3 (holdup construct) (domain or fragment, human, UniProt P78352 313-393, looked up)
chain: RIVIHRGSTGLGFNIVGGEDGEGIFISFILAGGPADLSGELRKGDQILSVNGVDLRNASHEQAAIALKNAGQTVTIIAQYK
notes: also called DLG4_3; source: E. coli, PDZome V.2 library, high-throughput expression
B7: Protein scribble homolog, PDZ domain 3 (holdup construct) (domain or fragment, human, UniProt Q14160 1004-1093, looked up)
chain: EIRLPRAGGPLGLSIVGGSDHSSHPFGVQEPGVFISKVLPRGLAARSGLRVGDRILAVNGQDVRDATHQEAVSALLRPCLELSLLVRRDP
notes: also called SCRIB_3; source: E. coli, PDZome V.2 library, high-throughput expression
B8: Membrane-associated guanylate kinase, WW and PDZ domain-containing protein 1, PDZ domain 2 (holdup construct) (domain or fragment, human, UniProt Q96QZ7 472-554, looked up)
chain: HTKLRKSSRGFGFTVVGGDEPDEFLQIKSLVLDGPAALDGKMETGDVIVSVNDTCVLGHTHAQVVKIFQSIPIGASVDLELCR
notes: also called MAGI1_2; source: E. coli, PDZome V.2 library, high-throughput expression
B9: Partitioning defective 3 homolog B, PDZ domain 1 (holdup construct) (domain or fragment, human, UniProt Q8TEW8 201-289, looked up)
chain: TRTVEISGEGGPLGIHVVPFFSSLSGRILGLFIRGIEDNSRSKREGLFHENECIVKINNVDLVDKTFAQAQDVFRQAMKSPSVLLHVLP
notes: also called PARD3B_1; source: E. coli, PDZome V.2 library, high-throughput expression
B10: Protein scribble homolog, PDZ domain 1 (holdup construct) (domain or fragment)
chain: not shown
notes: also called SCRIB_1; source: E. coli, PDZome V.2 library, high-throughput expression
B11: Rho guanine nucleotide exchange factor 12, PDZ domain (holdup construct) (domain or fragment, human, UniProt Q9NZN5 72-151, looked up)
chain: CVIIQKDDNGFGLTVSGDNPVFVQSVKEDGAAMRAGVQTGDRIIKVNGTLVTHSNHLEVVKLIKSGSYVALTVQGRPPGS
notes: also called ARHGEF12; source: E. coli, PDZome V.2 library, high-throughput expression
B12: T-lymphoma invasion and metastasis-inducing protein 2, PDZ domain (holdup construct) (domain or fragment, human, UniProt Q8IVF5 890-976, looked up)
chain: DVQLTKTGSVCDFGFAVTAQVDERQHLSRIFISDVLPDGLAYGEGLRKGNEIMTLNGEAVSDLDLKQMEALFSEKSVGLTLIARPPD
notes: also called TIAM2; source: E. coli, PDZome V.2 library, high-throughput expression
B13: PDZ domain-containing RING finger protein 3, PDZ domain 1 (holdup construct) (domain or fragment, human, UniProt Q9UPQ7 249-339, looked up)
chain: TLVLHRDSGSLGFNIIGGRPSVDNHDGSSSEGIFVSKIVDSGPAAKEGGLQIHDRIIEVNGRDLSRATHDQAVEAFKTAKEPIVVQVLRRT
notes: also called PDZRN3_1; source: E. coli, PDZome V.2 library, high-throughput expression
B14: Membrane-associated guanylate kinase, WW and PDZ domain-containing protein 2, PDZ domain 2 (holdup construct) (domain or fragment, human, UniProt Q86UL8 426-510, looked up)
chain: STTLKKSNMGFGFTIIGGDEPDEFLQVKSVIPDGPAAQDGKMETGDVIVYINEVCVLGHTHADVVKLFQSVPIGQSVNLVLCRGY
notes: also called MAGI2_2; source: E. coli, PDZome V.2 library, high-throughput expression
B15: PDZ domain-containing protein 4, PDZ domain (holdup construct) (domain or fragment, human, UniProt Q76G19 130-214, looked up)
chain: EVELYKSSHRDKLGLMVCYRTDDEEDLGIYVGEVNPNSIAAKDGRIREGDRIIQINGVDVQNREEAVAILSQEENTNISLLVARP
notes: also called PDZD4; source: E. coli, PDZome V.2 library, high-throughput expression
B16: Synaptojanin-2-binding protein, PDZ domain (holdup construct) (domain or fragment, human, UniProt P57105 13-100, looked up)
chain: EINLTRGPSGLGFNIVGGTDQQYVSNDSGIYVSRIKENGAAALDGRLQEGDKILSVNGQDLKNLLHQDAVDLFRNAGYAVSLRVQHRL
notes: also called SYNJ2BP; source: E. coli, PDZome V.2 library, high-throughput expression
B17: PDZ domain-containing protein 7, PDZ domain 3 (holdup construct) (domain or fragment, human, UniProt Q9H5P4 862-934, looked up)
chain: TVTLSKMKQSLGISISGGIESKVQPMVKIEKIFPGGAAFLSGALQAGFELVAVDGENLEQVTHQRAVDTIRRA
notes: also called PDZD7_3; source: E. coli, PDZome V.2 library, high-throughput expression

Biological target: T1, biotinylated WNV NS5 PBM peptide
Test: holdup assay (automated high-throughput chromatography); biotinylated NS5 PBM peptide as bait against 259 human PDZ domains expressed in E. coli; read-out binding intensity (BI), mean of replicates; BI threshold 0.2 for a significant interaction

| Binder | BI (holdup binding intensity) |
| --- | --- |
| B1 | 0.32 |
| B2 | < 0.15 |
| B3 | 0.22 |
| B4 | 0.39 |
| B5 | 0.68 |
| B6 | 0.24 |
| B7 | 0.33 |
| B8 | 0.55 |
| B9 | 0.48 |
| B10 | 0.27 |
| B11 | 0.25 |
| B12 | < 0.15 |
| B13 | 0.35 |
| B14 | 0.38 |
| B15 | < 0.15 |
| B16 | 0.21 |
| B17 | 0.27 |
